T1: E. coli FhuA, outer membrane iron transporter protein (E. coli, UniProt P06971 34-747)
T1 construct: whole, on cells; also called outer membrane iron-transporter (E. coli)
T1 sequence: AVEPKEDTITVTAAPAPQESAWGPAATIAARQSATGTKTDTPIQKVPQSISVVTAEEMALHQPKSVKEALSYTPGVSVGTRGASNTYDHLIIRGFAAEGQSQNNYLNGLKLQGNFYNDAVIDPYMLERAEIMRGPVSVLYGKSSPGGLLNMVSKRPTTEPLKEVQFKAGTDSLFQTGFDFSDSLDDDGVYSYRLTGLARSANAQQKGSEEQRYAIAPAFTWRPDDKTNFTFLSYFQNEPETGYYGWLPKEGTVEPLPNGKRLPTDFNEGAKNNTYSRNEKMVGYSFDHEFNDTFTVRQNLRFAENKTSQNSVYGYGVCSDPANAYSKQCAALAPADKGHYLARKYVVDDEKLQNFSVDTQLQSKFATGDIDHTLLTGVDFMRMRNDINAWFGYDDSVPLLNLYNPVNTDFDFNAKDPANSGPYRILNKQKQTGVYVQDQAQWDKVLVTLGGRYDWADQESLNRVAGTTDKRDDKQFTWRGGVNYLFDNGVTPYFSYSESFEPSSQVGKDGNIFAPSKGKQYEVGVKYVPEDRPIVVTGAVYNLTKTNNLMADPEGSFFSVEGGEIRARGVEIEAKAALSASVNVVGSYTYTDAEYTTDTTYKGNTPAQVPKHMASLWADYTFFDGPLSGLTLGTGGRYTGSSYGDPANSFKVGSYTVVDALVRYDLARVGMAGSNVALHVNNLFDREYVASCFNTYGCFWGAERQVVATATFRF

B1: Bacteriophage T5 protein pb5 expressed in E. coli with a 6x-His tag (ligand)
chain: MSFFAGKLNNKSILSLRRGSGGDTNQHINPDSQTIFHSDMSHVIITETHSTGLRLDQGAGDYYWSEMPSRVTQLHNNDPNRVVLTEIEFSDGSRHMLSGMSMGVGAKAYGIINPQIMSQGGLKTQITASADLSLDVGYFNTGTSGTIPQKLRDGTGCQHMFGAFSGRRGFASSAMYLGGAALYKSAWSGSGYVVADAGTLTIPSDYVRHPGARNFGFNAIYVRGRSCNRVLYGMEGPNYTTGGAVQGASSSGALNFTYNPSNPESPKYSVGFARADPTNYAYWESMGDPNDSANGPIGIYSEHLGIYPSKITWYVTNLVYNGSGYNIDGGLFNGNDIKLSPREFIIKGVNVNNTSWKFINFIEKNFNVGNRADFRDVGCNLSKDSPSTGISGIATFGLPTTESNNAPSIKGGNVGGLHANVVSIYNFLPSASWYVSSNPPKIGNNYGDVWSENLLPLRLLGGSGSTILSGNIVFQGNGSVHVGTVGLDLNSSRNGAIVCTMEFIDDTWLSAGGIGCFNPTEMLSQGAEYGDSRFRIGGNTINKKLHQILSLPAGEYVPFFTIKGTVVNACKLQAAAYNPTPYWVSGLPGSVGQTGYYTLTYYMRNDGNNNISIWLDSSMSNIIGMKACLPNIKLIIQRLT
notes: it is placed C-terminal here only because of the label 'pb5-His'; also called pb5-His; His-pb5; not shown: 6x-His tag
B2: Qdot-pb5 conjugate (CdSe/ZnS quantum dots conjugated to pb5 by carbodiimide coupling) (other)
chain: B1 chain
modifications: CdSe/ZnS quantum dot (Qdot) coupled by carbodiimide (EDC) chemistry; site of coupling and number of pb5 per Qdot not stated
notes: Two colours were used in the pulse labeling (Qdot532-pb5, Qdot602-pb5); the protein part is the same purified His-tagged pb5; also called Qdot-pb5s; Qdot532-pb5; not shown: 6x-His tag of the purified pb5

Key:
[1] = target: T1, E. coli FhuA, outer membrane iron …; test: fluorescence microscopy, live E. coli cells expressing FhuA, 50 nM His-tagged pb5, detected with fluorescent anti-His antibody
[2] = target: T1, E. coli FhuA, outer membrane iron …; test: flow cytometry titration with 2.5 to 20 nM Qdot-pb5, FhuA on R. eutropha cells against FhuA on E. coli cells (FIG. 19)
[3] = target: T1, E. coli FhuA, outer membrane iron …; test: flow cytometry, FhuA on E. coli cells against FhuA on R. eutropha cells (FIG. 14E)

Binder	binding result [1]	fold lower total binding, R. eutropha cells against E. coli cells [2] [times lower]	fold binding efficiency, E. coli cells against R. eutropha cells [3] [fold]
B1	binds	–	–
B2	–	~3.4	~3.4
